Patent US20230227790

Target: component B (compB) protein (I53-50B)
Test: SEC-HPLC after sub-surface pipette addition and orbital agitation overnight

B1: component A (compA) protein (I53-50A) fused to RSV antigen (protein)
chain: MEELFKKHKIVAVLRANSVEEAIEKAVAVFAGGVHLIEITFTVPDADTVIKALSVLKEKGAIIGAGTVTSVEQCRKAVESGAEFIVSPHLDEEISQFCKEKGVFYMPGVMTPTELVKAMKLGHTILKLFPGEVVGPQFVKAMKGPFPNVKFVPTGGVNLDNVCEWFKAGVLAVGVGSALVKGTPDEVREKAKAFVEKIRGCTE
- VLP assembly peak (% by HPLC): formation of the VLP assembly (50%)
